Assay [1] deals with T1, human Fcγ receptor IIA, R167 variant (human, UniProt P12318 36-218).
T1 construct: also called Type IIA R167
T1 sequence (looked up): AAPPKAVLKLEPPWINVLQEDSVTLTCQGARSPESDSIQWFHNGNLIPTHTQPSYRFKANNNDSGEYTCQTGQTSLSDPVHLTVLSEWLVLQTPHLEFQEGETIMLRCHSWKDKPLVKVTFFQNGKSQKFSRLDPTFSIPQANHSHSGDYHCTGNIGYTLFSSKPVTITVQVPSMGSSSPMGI
The experiment in a line: SPR (Biacore T200), construct amine-coupled, Fcγ receptor titrated 375-6000 nM, 1:1 fit. Here is the method:
(§1) The Fc region incorporated into anti-PSMA bispecific constructs contained mutations intended to reduce or abolish binding to common human and cynomolgus Fc gamma receptors. SPR experiments were conducted at 25° C. in HBS-EP+ with 0.2% BSA buffer on a Biacore T200 system to evaluate the impact of these mutations on binding. For these experiments, three flow cells of a CM5 sensor chip were immobilized with anti-PSMA bispecifics by standard amine coupling to a response level of ˜2000 RU. A blank immobilization was performed on flow cell #1 for purposes of background signal subtraction. Both human and cynomolgus monkey Fcγ receptors (purchased from R&D Systems) were diluted in HBS-EP+ with 0.2% BSA to 4-6 μM and then flowed as analytes at 30 μL/min for 120 seconds followed by a 240 second dissociation step. No regeneration step was required. Blank-subtracted sensorgrams were visually inspected for binding to each of the Fcγ receptor proteins. […] Attenuated binding to Fcγ receptors IIA (both polymorphic variants) and IIB/C was observed. PSMA01107 and PSMA01108 share the same Fc amino acid sequence and therefore equivalent Fcγ receptor binding behavior was expected.
(§2) TSC266 (PSMA×CD3 bispecific antibody) and another protein containing a wild-type IgG1 Fc sequence were also analyzed for comparison. Sensorgrams obtained from kinetic SPR measurements were analyzed by the double subtraction method in the Biacore T200 evaluation software. Kinetic parameters were derived from a one-to-one binding fit model and reported below in Table 8. Both TSC266 and PSMA01107 show reduced binding compared to a wild type IgG1 Fc.
On the technique in general: In SPR one partner is held on a chip, and binding of the other changes the refractive index at the surface.

Assay [2] addresses T2, human Fcγ receptor IIA, H167 variant (human, UniProt P12318 36-218).
T2 sequence (looked up): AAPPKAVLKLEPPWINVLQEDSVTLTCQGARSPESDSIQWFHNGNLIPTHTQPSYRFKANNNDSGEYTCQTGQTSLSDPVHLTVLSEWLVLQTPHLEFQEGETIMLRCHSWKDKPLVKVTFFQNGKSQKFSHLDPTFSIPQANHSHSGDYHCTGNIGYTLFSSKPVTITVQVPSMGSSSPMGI
The description is as above. The protocol: as §1, §2

Assay [3] deals with T3, recombinant human FcRn/b2M complex (human, UniProt P55899 24-297; P61769 21-119, limits assumed).
T3 construct: also called hFcRn/b2M; neonatal Fc receptor
The experiment in a line: SPR at pH 6.0, hFcRn/b2M amine-coupled, construct 1-81 nM as analyte, steady-state affinity model. The protocol:
(§3) Recombinant FcRn/b2M protein was generated via transient transfection of HEK-293 cells with a bi-cistronic vector containing the genes for both FcRn and […]. The complex was purified using IMAC chromatography and subsequently buffer exchanged into PBS buffer after verifying purity of the IMAC eluate by analytical SEC. Purified hFcRn/b2M at 5 μg/ml in 10 mM sodium acetate (pH 5.0) was immobilized on a CM5 chip by direct amine coupling chemistry to a level of ˜400 RU. A reference flow cell was left blank.
(§4) Different concentrations of the Fc variant protein (1-81 nM by 3-fold dilutions in HBS-EP+ with 0.2% BSA running buffer at pH 6.0) including running buffer as blank were injected in randomized order at 30 μL/min for 180 seconds followed by a 180 second dissociation period. Optimal regeneration was achieved by two injections of HBS-EP+ with 0.2% BSA at pH 7.5 at a flow rate of […] for 30 seconds followed by running buffer stabilization for 1 minute.
(§5) Sensorgrams obtained from kinetic SPR measurements were analyzed by the double subtraction method. […] Buffer reference was subtracted from analyte binding responses, and the final double-referenced data were analyzed with Biacore T200 Evaluation software (2.0, GE), globally fitting data to derive kinetic parameters. […]

Assay [4] addresses T4, Human PSMA ECD-AFH (TSC033), recombinant dimeric PSMA ECD (human, UniProt Q04609 44-750).
T4 construct: SEC-purified dimer; also called HuPSMA-AFH; Avi-His-Human PSMA ECD
The assay is described as follows: SPR (Biacore), recombinant dimeric PSMA ECD. Here is the method: Mouse anti-human IgG (GE, BR-1008-39) at 25 μg/ml in 10 mM sodium acetate pH 5.0 was immobilized at a density of ˜2,000-4,000 response units (RU) onto each flow cell of a CM5 research-grade sensor chip (GE) by standard amine coupling chemistry. Each anti-PSMA protein at approximately 40 nM in dPBS with 0.2% BSA buffer was captured in a flow cell with the immobilized anti-human IgG at a flow rate of […] for up to 30 seconds, leaving one flow cell surface unmodified as the reference. Using a multi-cycle kinetics mode, a buffer blank and […] different concentrations of ECD ranging from 1 nM to 243 nM were sequentially injected through each flow cell at 30 μL/min with association times varying from 300-600 seconds and dissociation times varying from 600-1200 seconds. Regeneration was achieved by injection of 3 M MgCl₂ at a flow rate of 30 μL/min for up to 40 seconds followed by dPBS with 0.2% BSA buffer stabilization for 1 min.
The KD was determined for a set of PSMA×CD3 bispecific proteins binding to recombinant dimeric PSMA ECD using SPR. In comparison to the constructs analyzed in Table 3, which all had the anti-PSMA scFv in the VL-VH orientation, the constructs in Table 11 have sequences with the reverse the order of the variable domains. The constructs below utilize the PSMA01023 anti-PSMA sequence as a basis.

Assay [5] has as its target T3, recombinant human FcRn/b2M complex. The assay is described as follows: SPR at pH 6.0, hFcRn/b2M amine-coupled, construct 1-81 nM as analyte, two-state reaction model fit. The protocol: as §3, §4, §5

Kd data for three molecules are collected here from US20240301086A1 (APTEVO RESEARCH AND DEVELOPMENT, published 2024).

T3 sequence (P55899 24-297 limits assumed, chain 1 of 2): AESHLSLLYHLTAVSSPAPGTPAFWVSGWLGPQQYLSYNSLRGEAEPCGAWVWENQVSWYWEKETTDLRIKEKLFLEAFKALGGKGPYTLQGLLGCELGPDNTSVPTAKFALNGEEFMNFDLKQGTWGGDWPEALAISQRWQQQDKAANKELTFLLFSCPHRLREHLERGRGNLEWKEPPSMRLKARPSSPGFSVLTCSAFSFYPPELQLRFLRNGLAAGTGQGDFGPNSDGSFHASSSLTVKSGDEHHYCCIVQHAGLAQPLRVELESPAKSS
T3 sequence (P61769 21-119 limits assumed, chain 2 of 2): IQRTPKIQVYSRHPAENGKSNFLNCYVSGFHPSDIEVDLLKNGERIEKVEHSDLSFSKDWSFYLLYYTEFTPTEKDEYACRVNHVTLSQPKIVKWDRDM
T4 sequence (Q04609 other isoform, or with tags, fused parts or gaps): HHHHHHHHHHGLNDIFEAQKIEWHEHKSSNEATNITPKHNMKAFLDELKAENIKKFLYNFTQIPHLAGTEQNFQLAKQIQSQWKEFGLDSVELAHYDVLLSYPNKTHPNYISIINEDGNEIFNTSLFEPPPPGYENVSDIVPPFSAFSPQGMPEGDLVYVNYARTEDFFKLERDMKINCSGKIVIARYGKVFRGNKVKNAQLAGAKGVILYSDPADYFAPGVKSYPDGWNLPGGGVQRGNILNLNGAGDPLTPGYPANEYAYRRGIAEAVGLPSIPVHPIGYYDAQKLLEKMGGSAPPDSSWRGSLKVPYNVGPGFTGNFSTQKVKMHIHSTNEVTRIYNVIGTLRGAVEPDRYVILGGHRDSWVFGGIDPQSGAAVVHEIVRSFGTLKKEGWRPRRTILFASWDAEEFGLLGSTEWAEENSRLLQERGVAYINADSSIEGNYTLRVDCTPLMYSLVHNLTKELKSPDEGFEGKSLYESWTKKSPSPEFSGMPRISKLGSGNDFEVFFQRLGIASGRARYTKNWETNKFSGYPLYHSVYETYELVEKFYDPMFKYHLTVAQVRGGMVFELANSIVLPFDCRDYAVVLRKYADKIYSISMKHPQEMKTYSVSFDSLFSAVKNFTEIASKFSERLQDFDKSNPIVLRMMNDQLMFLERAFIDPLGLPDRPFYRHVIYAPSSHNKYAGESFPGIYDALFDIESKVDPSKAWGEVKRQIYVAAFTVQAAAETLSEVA

B1: TSC266 Anti PSMA scFv x Anti CD3 scFv ADAPTIR (bispecific antibody)
chain: DIQMTQSPSAMSASVGDRVTITCRASKSISKYLAWFQQKPGKVPKLRIHSGSTLQSGVPSRFSGSGSGTEFTLTISSLQPEDFATYYCQQHIEYPWTFGQGTKVEIKRGGGGSGGGGSGGGGSQVQLVQSGAEVKKPGASVKVSCKASGYTFTDYYMHWVRQAPGQGLEWMGYFNPYNDYTRYAQKFQGRVTMTRDTSISTAYMELSSLRSDDTAVYYCARSDGYYDAMDYWGQGTTVTVSSSEPKSSDKTHTCPPCPAPEAAGAPSVFLFPPKPKDTLMISRTPEVTCVVVDVSHEDPEVKFNWYVDGVEVHNAKTKPREEQYNSTYRVVSVLTVLHQDWLNGKAYACAVSNKALPAPIEKTISKAKGQPREPQVYTLPPSRDELTKNQVSLTCLVKGFYPSDIAVEWESNGQPENNYKTTPPVLDSDGSFFLYSKLTVDKSRWQQGNVFSCSVMHEALHNHYTQKSLSLSPGQRHNNSSLNTGTQMAGHSPNSQVQLVESGGGVVQPGRSLRLSCKASGYTFTRSTMHWVRQAPGQGLEWIGYINPSSAYTNYNQKFKDRFTISADKSKSTAFLQMDSLRPEDTGVYFCARPQVHYDYNGFPYWGQGTPVTVSSGGGGSGGGGSGGGGSAQDIQMTQSPSSLSASVGDRVTMTCSASSSVSYMNWYQQKPGKAPKRWIYDSSKLASGVPARFSGSGSGTDYTLTISSLQPEDFATYYCQQWSRNPPTFGGGTKLQITSSS
notes: The anti-PSMA domain is that of PSMA01012 and the anti-CD3 domain is DRA222; also called unoptimized parent construct; TSC266 control (PSMA × CD3 bispecific protein)
One may read the Kd as the equilibrium constant for the complex coming apart. In the case of B1, the results for the dissociation constant Kd in assay [1] and in assay [2] were 1500 nM and 20000 nM, respectively.

B2: PSMA01107 Anti-PSMA scFv x Fc x linker x Anti CD3 scFv; Anti PSMA scFv x Fc (bispecific antibody)
chain 1: QVQLVQSGAEVKKPGASVKVSCKASGYTFTDYYMHWVRQAPGQGLEWMGYFNPYNDYTRYAQKFQGRVTMTRDTSTSTVYMELSSLRSEDTAVYYCARSDGYYDAMDYWGQGTTVTVSSGGGGSGGGGSGGGGSGGGGSDIQMTQSPSSLSASVGDRVTITCRASKSISKYLAWYQQKPGKAPKLLIHSGSSLESGVPSRFSGSGSGTEFTLTISSLQPDDFATYYCQQHIEYPWTFGQGTKVEIKEPKSSDKTHTCPPCPAPPAAAPSVFLFPPKPKDTLMISRTPEVTCVVVDVSHEDPEVKFNWYVDGVEVHNAKTKPREEQYNSTYRVVSVLTVLHQDWLNGKEYKCAVSNKALPAPIEKTISKAKGQPREPQVYTLPPSRDELTKNQVSLWCLVKGFYPSDIAVEWESNGQPENNYKTTPPVLDSDGSFFLYSKLTVDKSRWQQGNVFSCSVMHEALHNHYTQKSLSLSPGGGGSPSQVQLVQSGAEVKKPGASVKVSCKASGYTFTRSTMHWVRQAPGQGLEWIGYINPSSAYTNYAQKFQGRVTLTADKSTSTAYMELSSLRSEDTAVYYCASPQVHYDYNGFPYWGQGTLVTVSSGGGGSGGGGSGGGGSGGGGSDIQMTQSPSSLSASVGDRVTITCRASSSVSYMNWYQQKPGKAPKRWIYDSSKLASGVPSRFSGSGSGTDFTLTISSLQPEDFATYYCQQWSRNPPTFGQGTKVEIKRS
chain 2: QVQLVQSGAEVKKPGASVKVSCKASGYTFTDYYMHWVRQAPGQGLEWMGYFNPYNDYTRYAQKFQGRVTMTRDTSTSTVYMELSSLRSEDTAVYYCARSDGYYDAMDYWGQGTTVTVSSGGGGSGGGGSGGGGSGGGGSDIQMTQSPSSLSASVGDRVTITCRASKSISKYLAWYQQKPGKAPKLLIHSGSSLESGVPSRFSGSGSGTEFTLTISSLQPDDFATYYCQQHIEYPWTFGQGTKVEIKEPKSSDKTHTCPPCPAPPAAAPSVFLFPPKPKDTLMISRTPEVTCVVVDVSHEDPEVKFNWYVDGVEVHNAKTKPREEQYNSTYRVVSVLTVLHQDWLNGKEYKCAVSNKALPAPIEKTISKAKGQPREPQVYTLPPSRDELTKNQVSLSCAVKGFYPSDIAVEWESNGQPENNYKTTPPVLDSDGSFFLVSKLTVDKSRWQQGNVFSCSVMHEALHNHYTQKSLSLSPG
notes: Heterodimer, bivalent for PSMA and monovalent for CD3 (VH-VL scFv at the C-terminus); also called PSMA1107
As to B2, the Kd is 5300 nM in assay [1]; 19900 nM in assay [2]; 59 nM in assay [3]; less than 10 nM in assay [4]; 47 nM in assay [5].

B3: PSMA01108 Anti-PSMA scFv x Fc x linker x Anti CD3 scFv; Anti PSMA scFv x Fc (bispecific antibody)
chain 1: QVQLVQSGAEVKKPGASVKVSCKASGYTFTDYYMHWVRQAPGQGLEWMGYFNPYNDYTRYAQKFQGRVTMTRDTSTSTVYMELSSLRSEDTAVYYCARSDGYYDAMDYWGQGTTVTVSSGGGGSGGGGSGGGGSGGGGSDIQMTQSPSSLSASVGDRVTITCRASKSISKYLAWYQQKPGKAPKLLIHSGSSLESGVPSRFSGSGSGTEFTLTISSLQPDDFATYYCQQHIEYPWTFGQGTKVEIKEPKSSDKTHTCPPCPAPPAAAPSVFLFPPKPKDTLMISRTPEVTCVVVDVSHEDPEVKFNWYVDGVEVHNAKTKPREEQYNSTYRVVSVLTVLHQDWLNGKEYKCAVSNKALPAPIEKTISKAKGQPREPQVYTLPPSRDELTKNQVSLWCLVKGFYPSDIAVEWESNGQPENNYKTTPPVLDSDGSFFLYSKLTVDKSRWQQGNVFSCSVMHEALHNHYTQKSLSLSPGGGGSPSDIQMTQSPSSLSASVGDRVTITCRASSSVSYMNWYQQKPGKAPKRWIYDSSKLASGVPSRFSGSGSGTDFTLTISSLQPEDFATYYCQQWSRNPPTFGQGTKVEIKGGGGSGGGGSGGGGSGGGGSQVQLVQSGAEVKKPGASVKVSCKASGYTFTRSTMHWVRQAPGQGLEWIGYINPSSAYTNYAQKFQGRVTLTADKSTSTAYMELSSLRSEDTAVYYCASPQVHYDYNGFPYWGQGTLVTVSS
chain 2: QVQLVQSGAEVKKPGASVKVSCKASGYTFTDYYMHWVRQAPGQGLEWMGYFNPYNDYTRYAQKFQGRVTMTRDTSTSTVYMELSSLRSEDTAVYYCARSDGYYDAMDYWGQGTTVTVSSGGGGSGGGGSGGGGSGGGGSDIQMTQSPSSLSASVGDRVTITCRASKSISKYLAWYQQKPGKAPKLLIHSGSSLESGVPSRFSGSGSGTEFTLTISSLQPDDFATYYCQQHIEYPWTFGQGTKVEIKEPKSSDKTHTCPPCPAPPAAAPSVFLFPPKPKDTLMISRTPEVTCVVVDVSHEDPEVKFNWYVDGVEVHNAKTKPREEQYNSTYRVVSVLTVLHQDWLNGKEYKCAVSNKALPAPIEKTISKAKGQPREPQVYTLPPSRDELTKNQVSLSCAVKGFYPSDIAVEWESNGQPENNYKTTPPVLDSDGSFFLVSKLTVDKSRWQQGNVFSCSVMHEALHNHYTQKSLSLSPG
notes: also called PSMA1108; PSAM01108
Consider B3, for which the results for the Kd in assay [3], in assay [4] and in assay [5] were 27 nM, less than 10 nM and 19 nM, respectively.
